Source: patent US20260234655A1, “Nuclear Targeted DNA Delivery and Compositions for Use in Practicing the Same” (Seawolf Therapeutics, Inc., priority 2022, published 2026)

What was measured:
[1] = test system: primary human hepatocytes; experiment: pDNAs containing DTSs transfected into primary human hepatocytes; GFP by quantitative live-cell imaging and FACS; format: cell-based; conditions: 24 h post-transfection
Text: DNA construct design. Each DTS was constructed in pentameric repeat using a 15 bp spacer between each TFBS. The DTS was appended just 5′ to the promoter, effectively in a putative enhancer region. Various promoters were employed in these constructs, including CBh (a variant of the CAG promoter) and TTR. Several reporter genes were employed in these constructs, including enhanced Green Fluorescent Protein (eGFP). The polyadenylation (polyA) signal is a BGH-PolyA sequence. For pooled screening, unique molecular identifiers (UMIs; also known as barcodes) were used to distinguish between DNA constructs in a pool, and the UMIs were appended to the 3′UTR immediately downstream of the stop codon of eGFP, just preceding the BGH-PolyA sequence.
Plasmid DNAs (pDNAs) containing various DTSs were transfected into primary human hepatocytes. GFP expression was quantified 24 h post-transfection by measuring GFP intensity using quantitative live-cell imaging, then cells were harvested and the % of GFP-positive cells was measured by FACS. A strong correlation between total GFP intensity and % GFP-positive cells was observed (FIG. 3A). The DTSs identified as hits (open circles) increased both the GFP intensity and the % GFP-positive cells compared to the Spacer negative control (FIG. 3A). […]

[2] = test system: growth-arrested HepG2 cells; experiment: Pooled DTS screen in growth-arrested HepG2 cells; mRNA abundance by RNA-seq of UMIs; format: cell-based
Text: Library cloning. Pooled DTS libraries were designed as described above. To ensure the highest quality library production of oligos for cloning, oligo lengths were standardized to 300 bp. To accommodate this standardized length the core sequence of each DTS was embedded center-justified in a neutral fragment of random DNA sequence. The flanks of each oligo contained unique golden gate restriction enzyme digestion sites (Bsal) for cloning of double stranded DNA into screening vectors. […] The proper UMI/DTS barcode correlation (termed here the “library registry”) was determined via excision of the hTTR/eGFP fragments, re-ligation of the vector, PCR amplification of the corresponding proximal DTS and UMI regions, and sequencing on an Illumina Miseq (2×150 bp reads). […]
Quantification of mRNA abundance from pooled DTS screens. […] The PCR amplified cDNA was then library prepped (NEBNext library prep for Illumina) and sequenced on an Illumina Miseq (2×150 bp reads). Counts for each UMI were translated into the corresponding DTS using the UMI/Barcode registry and changes in abundance of each DTS were statistically analyzed using a custom R script. The log 2 fold change is calculated by comparing the RNA level in the pool vs. its expected abundance, which is derived from the abundance in the corresponding input DNA pool. […]

B1: NFKB: benchmark DTS with NF-κB binding sites in pentameric repeat (SEQ ID NO: 140) (nucleic acid)
DNA: GGGACTTTCCAGATTACTACTGATAGGGACTTTCCAGATTACTACTGATAGGGACTTTCCAGATTACTACTGATAGGGACTTTCCAGATTACTACTGATAGGGACTTTCC
modifications: DNA nuclear targeting sequence within DNA cargo construct, further chemistry not given here
gene expression compared to the pDNA with no DTS [1]: robust increases
increase in GFP intensity compared to the pDNA with no DTS [1]: ~10 fold
mRNA abundance in pooled screen relative to Spacer negative control [2]: robust increases
